Where two headings read alike, the source gives them in different places. Starred links: 1 amine or outer side, 2 acyl side, 3 side chain; linkers in the order of their positions; H or OH if unused. Non-standard residues stand in square brackets, D forms with d. Groups on a side chain read outwards from the residue. *: point of attachment. C20 diacid = O=C(O)CCCCCCCCCCCCCCCCCCC(=O)*; γGlu = O=C(O)[C@H](CCC(=O)[*:2])N[*:1]; Aib = CC(C)(N)C(=O)O
T1: human GIP receptor (human, UniProt P48546 22-466)
T1 sequence (looked up): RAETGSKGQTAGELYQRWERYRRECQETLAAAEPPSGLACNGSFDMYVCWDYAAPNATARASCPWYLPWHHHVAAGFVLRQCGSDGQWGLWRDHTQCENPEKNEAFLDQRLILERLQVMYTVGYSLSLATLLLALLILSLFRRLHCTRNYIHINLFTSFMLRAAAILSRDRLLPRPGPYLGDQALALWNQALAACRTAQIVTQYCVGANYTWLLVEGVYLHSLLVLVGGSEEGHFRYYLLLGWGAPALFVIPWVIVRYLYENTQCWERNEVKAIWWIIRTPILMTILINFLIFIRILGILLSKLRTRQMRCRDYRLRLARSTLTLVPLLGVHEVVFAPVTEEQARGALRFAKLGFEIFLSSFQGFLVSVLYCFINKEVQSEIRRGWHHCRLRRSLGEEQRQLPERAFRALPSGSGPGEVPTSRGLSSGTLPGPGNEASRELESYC


Columns and labels:
Assay in all cases: cell-based or functional assay
human GIP receptor [1] = molecular target: T1, human GIP receptor
human GLP-1 receptor = human GLP-1 receptor (human, UniProt P43220 24-463)
[2] = molecular target: human GLP-1 receptor (human) (UniProt P43220)
human GLP-1 receptor (human), sequence (P43220 24-463): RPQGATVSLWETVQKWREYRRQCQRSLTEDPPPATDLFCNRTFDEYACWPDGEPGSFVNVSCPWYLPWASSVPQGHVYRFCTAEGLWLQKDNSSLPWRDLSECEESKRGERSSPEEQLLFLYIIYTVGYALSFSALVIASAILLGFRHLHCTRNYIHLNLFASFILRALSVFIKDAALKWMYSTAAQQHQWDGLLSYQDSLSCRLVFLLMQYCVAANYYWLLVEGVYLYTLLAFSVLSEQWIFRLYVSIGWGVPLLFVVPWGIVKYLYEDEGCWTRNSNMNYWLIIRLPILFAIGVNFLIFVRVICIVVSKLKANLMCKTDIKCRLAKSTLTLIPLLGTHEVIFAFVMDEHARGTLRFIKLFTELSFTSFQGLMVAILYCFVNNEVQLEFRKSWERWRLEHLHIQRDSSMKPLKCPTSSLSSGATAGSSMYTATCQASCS

human GIP receptor [3] = molecular target: T1, human GIP receptor; remark: listed apart in the source
human GIP receptor [4] = molecular target: T1, human GIP receptor; remark: listed apart in the source

Exendin-4, sequence (P26349 48-86 limits assumed): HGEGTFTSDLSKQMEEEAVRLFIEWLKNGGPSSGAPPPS

| Molecule | EC50, hGIP-R level of cAMP (HEK293 cells expressing human GIP R) (human GIP receptor [1]) | EC50 hGLP1 R (cAMP, HEK293 cells expressing the GLP-1R) (human GLP-1 receptor) | EC50 hGLP1 R (cAMP, HEK293 cells expressing the GLP-1R) [2] | EC50 hGIP R (cAMP, HEK293 cells expressing the GIP R) (human GIP receptor [3]) | EC50, hGIP-R level of cAMP (HEK293 cells expressing human GIP R) (human GIP receptor [4]) |
| --- | --- | --- | --- | --- | --- |
| human GIP (from UniProt P09681 52-93) (ligand) | 0.003 nM | > 100 nM | – | – | – |
| Exendin-4 (from UniProt P26349 48-86) (peptide) | – | – | 0.004 nM | – | – |
| H-Y[Aib]EGTFISDYSIELDKK([Peg3-Peg3-γGlu-C20 diacid])AQRAFVEWLLAQGPSSGAPPPS-NH2 [Compound 17] | – | > 3 nM | – | 0.016 nM | 0.007 nM |
| H-Y[Aib]EGTFISDYSIELDKK([Peg3-Peg3-γGlu-C20 diacid])AQRAFIEWLLAQGPSSGAPPPS-NH2 [Compound 18] | – | > 3 nM | – | 0.007 nM | 0.006 nM |
| H-Y[Aib]EGTFISDYSIELDKK([Peg3-Peg3-γGlu-C20 diacid])HQQDFVNYLLAQGPSSGAPPPS-NH2 [Compound 8] | – | > 10 nM | – | 0.019 nM | 0.009 nM |
| H-Y[Aib]EGTFISDYSIELDKIAAQDFVNWLLAGPSSGAPPPSK([Peg3-Peg3-γGlu-C20 diacid])-NH2 [Compound 16] | – | > 10 nM | – | 0.012 nM | 0.016 nM |
